# Test results reported in PMC11708228, “New mutations in the core Schizosaccharomyces pombe spindle pole body scaffold Ppc89 reveal separable functions in regulating cell division” (G3: Genes | Genomes | Genetics, 2024).
# T1: GST-Ppc89(545-687) (S. pombe, UniProt Q10218 545-687)
# T1 sequence (looked up): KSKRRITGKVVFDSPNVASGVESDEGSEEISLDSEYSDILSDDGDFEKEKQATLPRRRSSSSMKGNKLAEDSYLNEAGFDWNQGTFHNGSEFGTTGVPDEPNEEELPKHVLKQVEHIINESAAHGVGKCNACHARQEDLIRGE
# Target: T1, GST-Ppc89(545-687)
# Assay: pull-down; 10 µg GST-Ppc89 bound to GST beads, blocked with 5% BSA, 10 µg MBP-Sid4 added, 30 min at 4°C in GST-bind buffer (4.3 mM sodium phosphate pH 7.3, 137 mM NaCl, 2.7 mM KCl, 1 mM DTT, 0.1% NP-40); washes up to 300 mM NaCl; SDS-PAGE, Coomassie blue
# Conditions: both partners purified
binder,measurement,value
"MBP-Sid4(546-660) (domain or fragment, S. pombe, UniProt O60187 546-660, looked up, Sid4, S. pombe, 660 aa, residues 546-660 (predicted α-helices 7-11); source: Rosetta2(DE3)pLysS bacteria, purified (amylose resin)) SQPLTSLNMPDSRFNLAKEKQLYYRLGLQHIDQQCSVETANMLKTVLVQLNIPFAIFPSTIGQVRRQLQQGRRLYQWARNIHYLIYEENMRDGLVSKQCLADMLKKIRELKKRSL",binding result,binds
